Data reported in publication PMC5599985.

Legend:
[1] = biological target: biotinylated synthetic peptide containing the C-terminal 16 amino-acid residues of harmonin-a1 including the PBM; experiment: SPR
[2] = biological target: NTD-PDZ1 supramodule of harmonin-a1; experiment: NMR titration
[3] = biological target: PDZ2 domain of harmonin-a1 (amino acids 197-308); experiment: NMR titration

| Substance | Kd [1] [µM] | Kd [2] [µM] | Kd [3] [µM] |
| --- | --- | --- | --- |
| NTD-PDZ1 supramodule of harmonin-a1 (domain or fragment) | 61 |  |  |
| synthetic peptide of the C-terminal 16 residues of harmonin-a1 (amino acids 533-548) including the PBM |  | 51 | 375 |
